# Measurements: patent publication US20260049138A1 (Chugai, published 2026)
# Biological target: T1, CD3ε homodimer protein (human, UniProt P07766 23-126, limits assumed, sulfo-tag or biotin label in the ECL assays; amine-coupled to the chip in SPR)
# T1 construct: also called human CD3ε homodimer protein; CD3 (CD3ε)
# Test: SPR Biacore T200; CD3ε homodimer on CM4 chip;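 note: Single-residue variant antibodies injected as analyte over CD3ε homodimer immobilized by amine coupling, run at 25 °C in HBS-EP+ buffer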
# Protocol: An appropriate amount of CD3ε homodimer protein was immobilized onto Sensor chip CM4 (GE Healthcare Japan Corp.) by the amine coupling method. Then, the antibody having an appropriate concentration was injected thereto as an analyte and allowed to interact with the CD3ε homodimer protein on the sensor chip. Then, the sensor chip was regenerated by the injection of 10 mmol/L glycine-HCl (pH 1.5). The assay was conducted at 25° C., and HBS-EP+ (GE Healthcare Japan Corp.) was used as a running buffer. […] Each parameter was calculated using Biacore T200 Evaluation Software (GE Healthcare Japan Corp.).
# T1 sequence (P07766 23-126 limits assumed): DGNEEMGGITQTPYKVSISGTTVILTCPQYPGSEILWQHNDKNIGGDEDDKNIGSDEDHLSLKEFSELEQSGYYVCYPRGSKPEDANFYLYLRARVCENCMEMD
row,ratio of amounts bound Z=Y/X (altered form / CE115HA000),Binder
1,0.14,"CE115HA000 A102P one-arm antibody (antibody, human IgG1, kappa, L234A L235A, N297A, name in Kabat numbering) heavy: QVQLVESGGGVVQPGRSLRLSCAASGFTFSNAWMHWVRQAPGKGLEWVAQIKAKSNNYATYYAESVKGRFTISRDDSKNSLYLQMNSLKTEDTAVYYCRYVHYGAYYGVDPWGQGTTVTVSSASTKGPSVFPLAPSSKSTSGGTAALGCLVKDYFPEPVTVSWNSGALTSGVHTFPAVLQSSGLYSLSSVVTVPSSSLGTQTYICNVNHKPSNTKVDKKVEPKSCDKTHTCPPCPAPEAAGGPSVFLFPPKPKDTLMISRTPEVTCVVVDVSHEDPEVKFNWYVDGVEVHNAKTKPREEQYASTYRVVSVLTVLHQDWLNGKEYKCKVSNKALPAPIEKTISKAKGQPREPQVYTLPPSRCELTKNQVSLSCAVKGFYPSDIAVEWESNGQPENNYKTTPPVLDSDGSFFLVSKLTVDKSRWQQGNVFSCSVMHEALHNHYTQKSLSLSPDYKDDDDK EPKSSDKTHTCPPCPAPELLGGPSVFLFPPKPKDTLMISRTPEVTCVVVDVSHEDPEVKFNWYVDGVEVHNAKTKPREEQYNSTYRVVSVLTVLHQDWLNGKEYKCKVSNKALPAPIEKTISKAKGQPREPQVCTLPPSRDELTKNQVSLWCLVKGFYPSDIAVEWESNGQPENNYKTTPPVLDSDGSFFLYSKLTVDKSRWQQGNVFSCSVMHEALHNRYTQKSLSLSP light: DIVMTQSPLSLPVTPGEPASISCRSSQSLVHSNRNTYLHWYQQKPGQAPRLLIYKVSNRFSGVPDRFSGSGSGTDFTLKISRVEAEDVGVYYCGQGTQVPYTFGQGTKLEIKRTVAAPSVFIFPPSDEQLKSGTASVVCLLNNFYPREAKVQWKVDNALQSGNSQESVTEQDSKDSTYSLSSTLTLSKADYEKHKVYACEVTHQGLSSPVTKSFNRGEC"
2,1.43,"CE115HA000 D72V one-arm antibody (antibody, human IgG1, kappa, L234A L235A, N297A, name in Kabat numbering) heavy: QVQLVESGGGVVQPGRSLRLSCAASGFTFSNAWMHWVRQAPGKGLEWVAQIKAKSNNYATYYAESVKGRFTISRVDSKNSLYLQMNSLKTEDTAVYYCRYVHYGAYYGVDAWGQGTTVTVSSASTKGPSVFPLAPSSKSTSGGTAALGCLVKDYFPEPVTVSWNSGALTSGVHTFPAVLQSSGLYSLSSVVTVPSSSLGTQTYICNVNHKPSNTKVDKKVEPKSCDKTHTCPPCPAPEAAGGPSVFLFPPKPKDTLMISRTPEVTCVVVDVSHEDPEVKFNWYVDGVEVHNAKTKPREEQYASTYRVVSVLTVLHQDWLNGKEYKCKVSNKALPAPIEKTISKAKGQPREPQVYTLPPSRCELTKNQVSLSCAVKGFYPSDIAVEWESNGQPENNYKTTPPVLDSDGSFFLVSKLTVDKSRWQQGNVFSCSVMHEALHNHYTQKSLSLSPDYKDDDDK EPKSSDKTHTCPPCPAPELLGGPSVFLFPPKPKDTLMISRTPEVTCVVVDVSHEDPEVKFNWYVDGVEVHNAKTKPREEQYNSTYRVVSVLTVLHQDWLNGKEYKCKVSNKALPAPIEKTISKAKGQPREPQVCTLPPSRDELTKNQVSLWCLVKGFYPSDIAVEWESNGQPENNYKTTPPVLDSDGSFFLYSKLTVDKSRWQQGNVFSCSVMHEALHNRYTQKSLSLSP light: DIVMTQSPLSLPVTPGEPASISCRSSQSLVHSNRNTYLHWYQQKPGQAPRLLIYKVSNRFSGVPDRFSGSGSGTDFTLKISRVEAEDVGVYYCGQGTQVPYTFGQGTKLEIKRTVAAPSVFIFPPSDEQLKSGTASVVCLLNNFYPREAKVQWKVDNALQSGNSQESVTEQDSKDSTYSLSSTLTLSKADYEKHKVYACEVTHQGLSSPVTKSFNRGEC"
3,0.91,"CE115HA000 A102Y one-arm antibody (antibody, human IgG1, kappa, L234A L235A, N297A, name in Kabat numbering) heavy: QVQLVESGGGVVQPGRSLRLSCAASGFTFSNAWMHWVRQAPGKGLEWVAQIKAKSNNYATYYAESVKGRFTISRDDSKNSLYLQMNSLKTEDTAVYYCRYVHYGAYYGVDYWGQGTTVTVSSASTKGPSVFPLAPSSKSTSGGTAALGCLVKDYFPEPVTVSWNSGALTSGVHTFPAVLQSSGLYSLSSVVTVPSSSLGTQTYICNVNHKPSNTKVDKKVEPKSCDKTHTCPPCPAPEAAGGPSVFLFPPKPKDTLMISRTPEVTCVVVDVSHEDPEVKFNWYVDGVEVHNAKTKPREEQYASTYRVVSVLTVLHQDWLNGKEYKCKVSNKALPAPIEKTISKAKGQPREPQVYTLPPSRCELTKNQVSLSCAVKGFYPSDIAVEWESNGQPENNYKTTPPVLDSDGSFFLVSKLTVDKSRWQQGNVFSCSVMHEALHNHYTQKSLSLSPDYKDDDDK EPKSSDKTHTCPPCPAPELLGGPSVFLFPPKPKDTLMISRTPEVTCVVVDVSHEDPEVKFNWYVDGVEVHNAKTKPREEQYNSTYRVVSVLTVLHQDWLNGKEYKCKVSNKALPAPIEKTISKAKGQPREPQVCTLPPSRDELTKNQVSLWCLVKGFYPSDIAVEWESNGQPENNYKTTPPVLDSDGSFFLYSKLTVDKSRWQQGNVFSCSVMHEALHNRYTQKSLSLSP light: DIVMTQSPLSLPVTPGEPASISCRSSQSLVHSNRNTYLHWYQQKPGQAPRLLIYKVSNRFSGVPDRFSGSGSGTDFTLKISRVEAEDVGVYYCGQGTQVPYTFGQGTKLEIKRTVAAPSVFIFPPSDEQLKSGTASVVCLLNNFYPREAKVQWKVDNALQSGNSQESVTEQDSKDSTYSLSSTLTLSKADYEKHKVYACEVTHQGLSSPVTKSFNRGEC"
4,1.41,"CE115HA000 D72A one-arm antibody (antibody, human IgG1, kappa, L234A L235A, N297A, name in Kabat numbering) heavy: QVQLVESGGGVVQPGRSLRLSCAASGFTFSNAWMHWVRQAPGKGLEWVAQIKAKSNNYATYYAESVKGRFTISRADSKNSLYLQMNSLKTEDTAVYYCRYVHYGAYYGVDAWGQGTTVTVSSASTKGPSVFPLAPSSKSTSGGTAALGCLVKDYFPEPVTVSWNSGALTSGVHTFPAVLQSSGLYSLSSVVTVPSSSLGTQTYICNVNHKPSNTKVDKKVEPKSCDKTHTCPPCPAPEAAGGPSVFLFPPKPKDTLMISRTPEVTCVVVDVSHEDPEVKFNWYVDGVEVHNAKTKPREEQYASTYRVVSVLTVLHQDWLNGKEYKCKVSNKALPAPIEKTISKAKGQPREPQVYTLPPSRCELTKNQVSLSCAVKGFYPSDIAVEWESNGQPENNYKTTPPVLDSDGSFFLVSKLTVDKSRWQQGNVFSCSVMHEALHNHYTQKSLSLSPDYKDDDDK EPKSSDKTHTCPPCPAPELLGGPSVFLFPPKPKDTLMISRTPEVTCVVVDVSHEDPEVKFNWYVDGVEVHNAKTKPREEQYNSTYRVVSVLTVLHQDWLNGKEYKCKVSNKALPAPIEKTISKAKGQPREPQVCTLPPSRDELTKNQVSLWCLVKGFYPSDIAVEWESNGQPENNYKTTPPVLDSDGSFFLYSKLTVDKSRWQQGNVFSCSVMHEALHNRYTQKSLSLSP light: DIVMTQSPLSLPVTPGEPASISCRSSQSLVHSNRNTYLHWYQQKPGQAPRLLIYKVSNRFSGVPDRFSGSGSGTDFTLKISRVEAEDVGVYYCGQGTQVPYTFGQGTKLEIKRTVAAPSVFIFPPSDEQLKSGTASVVCLLNNFYPREAKVQWKVDNALQSGNSQESVTEQDSKDSTYSLSSTLTLSKADYEKHKVYACEVTHQGLSSPVTKSFNRGEC"
5,1.43,"CE115HA000 A102V one-arm antibody (antibody, human IgG1, kappa, L234A L235A, N297A, name in Kabat numbering) heavy: QVQLVESGGGVVQPGRSLRLSCAASGFTFSNAWMHWVRQAPGKGLEWVAQIKAKSNNYATYYAESVKGRFTISRDDSKNSLYLQMNSLKTEDTAVYYCRYVHYGAYYGVDVWGQGTTVTVSSASTKGPSVFPLAPSSKSTSGGTAALGCLVKDYFPEPVTVSWNSGALTSGVHTFPAVLQSSGLYSLSSVVTVPSSSLGTQTYICNVNHKPSNTKVDKKVEPKSCDKTHTCPPCPAPEAAGGPSVFLFPPKPKDTLMISRTPEVTCVVVDVSHEDPEVKFNWYVDGVEVHNAKTKPREEQYASTYRVVSVLTVLHQDWLNGKEYKCKVSNKALPAPIEKTISKAKGQPREPQVYTLPPSRCELTKNQVSLSCAVKGFYPSDIAVEWESNGQPENNYKTTPPVLDSDGSFFLVSKLTVDKSRWQQGNVFSCSVMHEALHNHYTQKSLSLSPDYKDDDDK EPKSSDKTHTCPPCPAPELLGGPSVFLFPPKPKDTLMISRTPEVTCVVVDVSHEDPEVKFNWYVDGVEVHNAKTKPREEQYNSTYRVVSVLTVLHQDWLNGKEYKCKVSNKALPAPIEKTISKAKGQPREPQVCTLPPSRDELTKNQVSLWCLVKGFYPSDIAVEWESNGQPENNYKTTPPVLDSDGSFFLYSKLTVDKSRWQQGNVFSCSVMHEALHNRYTQKSLSLSP light: DIVMTQSPLSLPVTPGEPASISCRSSQSLVHSNRNTYLHWYQQKPGQAPRLLIYKVSNRFSGVPDRFSGSGSGTDFTLKISRVEAEDVGVYYCGQGTQVPYTFGQGTKLEIKRTVAAPSVFIFPPSDEQLKSGTASVVCLLNNFYPREAKVQWKVDNALQSGNSQESVTEQDSKDSTYSLSSTLTLSKADYEKHKVYACEVTHQGLSSPVTKSFNRGEC"
6,1.05,"CE115HA000 D72E one-arm antibody (antibody, human IgG1, kappa, L234A L235A, N297A, name in Kabat numbering) heavy: QVQLVESGGGVVQPGRSLRLSCAASGFTFSNAWMHWVRQAPGKGLEWVAQIKAKSNNYATYYAESVKGRFTISREDSKNSLYLQMNSLKTEDTAVYYCRYVHYGAYYGVDAWGQGTTVTVSSASTKGPSVFPLAPSSKSTSGGTAALGCLVKDYFPEPVTVSWNSGALTSGVHTFPAVLQSSGLYSLSSVVTVPSSSLGTQTYICNVNHKPSNTKVDKKVEPKSCDKTHTCPPCPAPEAAGGPSVFLFPPKPKDTLMISRTPEVTCVVVDVSHEDPEVKFNWYVDGVEVHNAKTKPREEQYASTYRVVSVLTVLHQDWLNGKEYKCKVSNKALPAPIEKTISKAKGQPREPQVYTLPPSRCELTKNQVSLSCAVKGFYPSDIAVEWESNGQPENNYKTTPPVLDSDGSFFLVSKLTVDKSRWQQGNVFSCSVMHEALHNHYTQKSLSLSPDYKDDDDK EPKSSDKTHTCPPCPAPELLGGPSVFLFPPKPKDTLMISRTPEVTCVVVDVSHEDPEVKFNWYVDGVEVHNAKTKPREEQYNSTYRVVSVLTVLHQDWLNGKEYKCKVSNKALPAPIEKTISKAKGQPREPQVCTLPPSRDELTKNQVSLWCLVKGFYPSDIAVEWESNGQPENNYKTTPPVLDSDGSFFLYSKLTVDKSRWQQGNVFSCSVMHEALHNRYTQKSLSLSP light: DIVMTQSPLSLPVTPGEPASISCRSSQSLVHSNRNTYLHWYQQKPGQAPRLLIYKVSNRFSGVPDRFSGSGSGTDFTLKISRVEAEDVGVYYCGQGTQVPYTFGQGTKLEIKRTVAAPSVFIFPPSDEQLKSGTASVVCLLNNFYPREAKVQWKVDNALQSGNSQESVTEQDSKDSTYSLSSTLTLSKADYEKHKVYACEVTHQGLSSPVTKSFNRGEC"
